Experimental data from patent US20220160939A1, “SELF-ASSEMBLING PEPTIDES AS BRONCHIAL OBSTRUCTION AGENTS” (3-D MATRIX, LTD., priority 2014, published 2022).
Where no end group is shown, it is not given here.

How the values were obtained:
Type in all cases: physicochemical
[1] = Rheological properties of pH adjusted peptide solutions; settings: pH adjusted vs not adjusted; KLD12 1%, IEIK13 1%, PuraMatrix 1% and 2.5%
Experimental: Based on the visual observation of the effect of pH level on the properties of the peptide solutions, the effect on the rheological properties of the peptide solutions after adjusting their pH level to 3.4 (PuraMatrix® (SEQ ID NO:1) and KLD12 (SEQ ID NO:3)) or 3.7 (IEIK13 (SEQ ID NO:2)) was evaluated. If the pH levels of peptide solutions are higher than 3.5 (PuraMatrix® (SEQ ID NO:1) and KLD12 (SEQ ID NO:3)) or 3.7 (IEIK13 (SEQ ID NO:2)), the peptide solution began phase separation becoming cloudy. The rheological properties of PuraMatrix® (SEQ ID NO:1), KLD12 (SEQ ID NO:3) and IEIK13 (SEQ ID NO:2) solutions were higher at pH 3.4. The results are shown in FIG. 2 for KLD12 (SEQ ID NO:3) 1%, FIG. 3 for IEIK13 (SEQ ID NO:2) 1%, and FIGS. 4-5 for PuraMatrix® (SEQ ID NO:1) 1% and 2.5%, respectively. Stress sweep tests were performed at 10 rad/s. Frequency sweep tests were performed at 1 Pa.
Based on the results of the effect on the rheological properties of the peptide solutions after adjusting their pH level to 3.4 (PuraMatrix® (SEQ ID NO:1) and KLD12 (SEQ ID NO:3)) or 3.7 (IEIK13 (SEQ ID NO:2)), the effect on the rheological properties of the peptide solutions at various pH levels was evaluated. […] The rheological properties of peptides were evaluated at various concentrations using a rheometer (DHR-1, TA Instruments) with 20 mm plates. The results are shown in FIG. 6A for PuraMatrix® (SEQ ID NO:1) 2.5% solution and FIG. 6B for IEIK13 (SEQ ID NO:2) 1.5% solution, respectively. Frequency sweep tests were performed from 1 rad/sec to 10 rad/sec at 1 Pa and the storage modulus at 1 rad/sec was selected for data.

[2] = Gelation of peptide solutions after saline buffer treatment, time sweep test; settings: saline buffer (0.15 M of NaCl), no pH change; IEIK13 1.5%, KLD12 1.5%, PuraMatrix 2.5%
Experimental: The effect of salt ionic strength level surrounding peptides in solution on the properties of peptide solutions was evaluated to identify the possibility of peptide gelation when the peptide solution is placed into the environment where salt ionic strength level is high. […] Without pH effect, the effect of saline treatment on gelation of peptide solutions were evaluated. […] This is because IEIK13 (SEQ ID NO:2) is much more sensitive to salt ionic strength levels. Fast gelation of IEIK13 (SEQ ID NO:2) at the salt ionic strength level similar to body fluid isotonic salt level may generally improve its function and gelation speed for various clinical applications. The results are shown in FIG. 19 for IEIK13 (SEQ ID NO:2), KLD12 (SEQ ID NO:3) and PuraMatrix® (SEQ ID NO:1) solutions. Time sweep tests were performed at 1 rad/sec and at 1 Pa with 20 mm plates and 500 μm gap distance. […]

[3] = Appearance of 1.5% peptide solutions with various salts at room temperature; settings: for Appearance: room temperature
Experimental: The effect of salt ionic strength level on the properties of peptide solutions was evaluated to identify optimized salt ionic strength levels for the peptides as described herein. Increasing the salt ionic strength level of PuraMatrix® (SEQ ID NO:1) and other peptides may generally improve its function and mechanical strength for various clinical applications. To adjust the salt ionic strength of the peptide solutions by way of example, various salt buffer solutions including NaCl, KCl, MgCl2, CaCl2 and DPBS (10×) were added to 2 mL of 1.5% peptide solutions.

Sequence: KLDLKLDLKLDL [KLD12]
- rheological properties of solutions at pH 3.4 [1]: higher
- gelation after saline buffer treatment [2]: no or negligible gelation
- critical salt ionic strengths at which peptides become cloudy [3]: 0.3˜0.4 M
- Appearance ([3]; CaCl2 0 M, ionic strength 0 M, conc. 1.5%): Clear, thick gel
- Appearance ([3]; CaCl2 0.05 M, ionic strength 0.15 M, conc. 1.48%): Clear, thick, stiffer gel
- Appearance ([3]; CaCl2 0.067 M, ionic strength 0.2 M, conc. 1.47%): Clear, thick, stiffer gel
- Appearance ([3]; CaCl2 0.083 M, ionic strength 0.25 M, conc. 1.46%): Clear, thick, stiffer gel
- Appearance ([3]; CaCl2 0.1 M, ionic strength 0.3 M, conc. 1.45%): Clear, thick, stiffer gel
- Appearance ([3]; CaCl2 0.117 M, ionic strength 0.35 M, conc. 1.44%): Clear, thick, stiffer gel
- Appearance ([3]; CaCl2 0.133 M, ionic strength 0.4 M, conc. 1.43%): Slightly cloudy, thick, stiffer gel
- Appearance ([3]; CaCl2 0.15 M, ionic strength 0.45 M, conc. 1.43%): Slightly cloudy, brittle gel
- Appearance ([3]; CaCl2 0.167 M, ionic strength 0.5 M, conc. 1.42%): Cloudy, phase-separated
- Appearance ([3]; KCl 0 M, ionic strength 0 M, conc. 1.5%): Clear, thick gel
- Appearance ([3]; KCl 0.05 M, ionic strength 0.5 M, conc. 1.48%): Clear, thick, stiffer gel
- Appearance ([3]; KCl 0.1 M, ionic strength 0.1 M, conc. 1.45%): Clear, thick, stiffer gel
- Appearance ([3]; KCl 0.15 M, ionic strength 0.15 M, conc. 1.43%): Clear, thick, stiffer gel
- Appearance ([3]; KCl 0.2 M, ionic strength 0.2 M, conc. 1.4%): Clear, thick, stiffer gel
- Appearance ([3]; KCl 0.25 M, ionic strength 0.25 M, conc. 1.38%): Clear, thick, stiffer gel
- Appearance ([3]; KCl 0.3 M, ionic strength 0.3 M, conc. 1.35%): Slightly cloudy, thick, stiffer gel
- Appearance ([3]; KCl 0.35 M, ionic strength 0.35 M, conc. 1.32%): Slightly cloudy, brittle gel
- Appearance ([3]; KCl 0.4 M, ionic strength 0.4 M, conc. 1.3%): Cloudy, phase-separated
- Appearance ([3]; MgCl2 0 M, ionic strength 0 M, conc. 1.5%): Clear, thick gel
- Appearance ([3]; MgCl2 0.05 M, ionic strength 0.15 M, conc. 1.48%): Clear, thick, stiffer gel
- Appearance ([3]; MgCl2 0.067 M, ionic strength 0.2 M, conc. 1.47%): Clear, thick, stiffer gel
- Appearance ([3]; MgCl2 0.083 M, ionic strength 0.25 M, conc. 1.46%): Clear, thick, stiffer gel
- Appearance ([3]; MgCl2 0.1 M, ionic strength 0.3 M, conc. 1.45%): Clear, thick, stiffer gel
- Appearance ([3]; MgCl2 0.117 M, ionic strength 0.35 M, conc. 1.44%): Clear, thick, stiffer gel
- Appearance ([3]; MgCl2 0.133 M, ionic strength 0.4 M, conc. 1.43%): Slightly cloudy, thick, stiffer gel
- Appearance ([3]; MgCl2 0.15 M, ionic strength 0.45 M, conc. 1.43%): Slightly cloudy, brittle gel
- Appearance ([3]; MgCl2 0.167 M, ionic strength 0.5 M, conc. 1.42%): Cloudy, phase-separated
- Appearance ([3]; NaCl 0 M, ionic strength 0 M, conc. 1.5%): Clear, thick gel
- Appearance ([3]; NaCl 0.05 M, ionic strength 0.5 M, conc. 1.48%): Clear, thick, stiffer gel
- Appearance ([3]; NaCl 0.1 M, ionic strength 0.1 M, conc. 1.45%): Clear, thick, stiffer gel
- Appearance ([3]; NaCl 0.15 M, ionic strength 0.15 M, conc. 1.43%): Clear, thick, stiffer gel
- Appearance ([3]; NaCl 0.2 M, ionic strength 0.2 M, conc. 1.4%): Clear, thick, stiffer gel
- Appearance ([3]; NaCl 0.25 M, ionic strength 0.25 M, conc. 1.38%): Clear, thick, stiffer gel
- Appearance ([3]; NaCl 0.3 M, ionic strength 0.3 M, conc. 1.35%): Slightly cloudy, thick, stiffer gel
- Appearance ([3]; NaCl 0.35 M, ionic strength 0.35 M, conc. 1.32%): Slightly cloudy, brittle gel
- Appearance ([3]; NaCl 0.4 M, ionic strength 0.4 M, conc. 1.3%): Cloudy, phase-separated
- salt ionic strength increase that did not change the clear color, while apparent stiffness increased ([3]; depending on different salts, 1.5% peptide solutions): 0.25˜0.35 M
